Numbered stars: 1 amine (or outer) side, 2 acyl side, 3 side chain; on linkers, the order of the positions; unused ones are H or OH. Square brackets hold non-standard residues; d marks the D form. Side chains are listed from the residue outwards. * marks the point of attachment. C20 diacid = O=C(O)CCCCCCCCCCCCCCCCCCC(=O)*; C18 diacid = O=C(O)CCCCCCCCCCCCCCCCC(=O)*; γGlu = O=C(O)[C@H](CCC(=O)[*:2])N[*:1]; KEK = Lys-Glu-Lys peptide sequence; AEEA = NCCOCCOCC(=O)O; Aib = CC(C)(N)C(=O)O
T1: human GLP-2 receptor (hGLP2-R) (human, UniProt O95838)
T1 sequence: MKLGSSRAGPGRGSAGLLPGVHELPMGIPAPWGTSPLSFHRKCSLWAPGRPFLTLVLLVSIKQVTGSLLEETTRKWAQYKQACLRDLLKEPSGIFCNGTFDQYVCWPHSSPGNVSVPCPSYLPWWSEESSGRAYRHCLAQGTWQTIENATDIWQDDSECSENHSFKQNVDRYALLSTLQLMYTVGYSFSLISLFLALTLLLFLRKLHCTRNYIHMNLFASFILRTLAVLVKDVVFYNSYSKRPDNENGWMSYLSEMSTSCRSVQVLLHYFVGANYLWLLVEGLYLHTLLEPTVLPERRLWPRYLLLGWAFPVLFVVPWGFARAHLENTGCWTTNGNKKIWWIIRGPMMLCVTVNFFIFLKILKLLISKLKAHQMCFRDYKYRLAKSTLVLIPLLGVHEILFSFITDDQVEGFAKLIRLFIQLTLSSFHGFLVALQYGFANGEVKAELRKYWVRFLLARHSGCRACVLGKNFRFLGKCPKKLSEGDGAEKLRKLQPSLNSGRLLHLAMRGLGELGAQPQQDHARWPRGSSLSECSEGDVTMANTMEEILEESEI


Legend:
[1] = molecular target: human glucagon-like peptide 1 receptor (GLP-1R) (human, UniProt P43220); assay: cell-based or functional assay
[2] = molecular target: T1, human GLP-2 receptor (hGLP2-R); assay: cell-based or functional assay

Row | Binder | EC50 GLP-1 (nM), cAMP AlphaScreen [1] [nM] | EC50 GLP-2 (nM), cAMP AlphaScreen [2] [nM]
1 | H-H[Aib]EGSFTSELATILDK([AEEA-KEK-γGlu-C20 diacid])QAARDFIAWLIAHKITD-OH [Compound 58] | 0.089 | 0.09
2 | H-H[Aib]EGTFSSELATILDK([AEEA-KEK-γGlu-C20 diacid])QAARDFIAWLIEHKITD-OH [Compound 50] | 0.31 | 0.056
3 | H-H[Aib]EGTFSSELATILDK([γGlu-C18 diacid])EAARDFIAWLIEHKITD-OH (SMILES CC[C@H](C)[C@H](NC(=O)[C@H](Cc1ccccc1)NC(=O)[C@H](CC(=O)O)NC(=O)[C@H](CCCNC(=N)N)NC(=O)[C@H](C)NC(=O)[C@H](C)NC(=O)[C@H](CCC(=O)O)NC(=O)[C@H](CCCCNC(=O)CC[C@H](NC(=O)CCCCCCCCCCCCCCCCC(=O)O)C(=O)O)NC(=O)[C@H](CC(=O)O)NC(=O)[C@H](CC(C)C)NC(=O)[C@@H](NC(=O)[C@@H](NC(=O)[C@H](C)NC(=O)[C@H](CC(C)C)NC(=O)[C@H](CCC(=O)O)NC(=O)[C@H](CO)NC(=O)[C@H](CO)NC(=O)[C@H](Cc1ccccc1)NC(=O)[C@@H](NC(=O)CNC(=O)[C@H](CCC(=O)O)NC(=O)C(C)(C)NC(=O)[C@@H](N)Cc1c[nH]cn1)[C@@H](C)O)[C@@H](C)O)[C@@H](C)CC)C(=O)N[C@@H](C)C(=O)N[C@@H](Cc1c[nH]c2ccccc12)C(=O)N[C@@H](CC(C)C)C(=O)N[C@H](C(=O)N[C@@H](CCC(=O)O)C(=O)N[C@@H](Cc1c[nH]cn1)C(=O)N[C@@H](CCCCN)C(=O)N[C@H](C(=O)N[C@H](C(=O)N[C@@H](CC(=O)O)C(=O)O)[C@@H](C)O)[C@@H](C)CC)[C@@H](C)CC) [Compound 1] | 0.63 | 0.35
4 | H-H[Aib]EGSFTSELATILDEQAAK([AEEA-KEK-γGlu-C20 diacid])DFIAWLIEHKITD-OH [Compound 64] | 0.49 | 0.2
5 | H-H[Aib]EGSFTSELATILDAK([AEEA-KEK-γGlu-C20 diacid])AARDFIAWLIEHKITD-OH [Compound 62] | 0.27 | 0.15
6 | H-H[Aib]EGSFTSELATILDK([γGlu-C18 diacid])EAARDFIAWLIEHKITD-OH (SMILES CC[C@H](C)[C@H](NC(=O)[C@H](Cc1ccccc1)NC(=O)[C@H](CC(=O)O)NC(=O)[C@H](CCCNC(=N)N)NC(=O)[C@H](C)NC(=O)[C@H](C)NC(=O)[C@H](CCC(=O)O)NC(=O)[C@H](CCCCNC(=O)CC[C@H](NC(=O)CCCCCCCCCCCCCCCCC(=O)O)C(=O)O)NC(=O)[C@H](CC(=O)O)NC(=O)[C@H](CC(C)C)NC(=O)[C@@H](NC(=O)[C@@H](NC(=O)[C@H](C)NC(=O)[C@H](CC(C)C)NC(=O)[C@H](CCC(=O)O)NC(=O)[C@H](CO)NC(=O)[C@@H](NC(=O)[C@H](Cc1ccccc1)NC(=O)[C@H](CO)NC(=O)CNC(=O)[C@H](CCC(=O)O)NC(=O)C(C)(C)NC(=O)[C@@H](N)Cc1c[nH]cn1)[C@@H](C)O)[C@@H](C)O)[C@@H](C)CC)C(=O)N[C@@H](C)C(=O)N[C@@H](Cc1c[nH]c2ccccc12)C(=O)N[C@@H](CC(C)C)C(=O)N[C@H](C(=O)N[C@@H](CCC(=O)O)C(=O)N[C@@H](Cc1c[nH]cn1)C(=O)N[C@@H](CCCCN)C(=O)N[C@H](C(=O)N[C@H](C(=O)N[C@@H](CC(=O)O)C(=O)O)[C@@H](C)O)[C@@H](C)CC)[C@@H](C)CC) [Compound 2] | 0.13 | 0.25
7 | H-H[Aib]EGSFTSELATILDAK([AEEA-AEEA-KEK-γGlu-C20 diacid])AARDFIAWLIEHKITD-OH [Compound 63] | 0.31 | 0.17
8 | H-H[Aib]EGTFTSELATILDK([γGlu-C18 diacid])EAARDFIAWLIEHKITD-OH (SMILES CC[C@H](C)[C@H](NC(=O)[C@H](Cc1ccccc1)NC(=O)[C@H](CC(=O)O)NC(=O)[C@H](CCCNC(=N)N)NC(=O)[C@H](C)NC(=O)[C@H](C)NC(=O)[C@H](CCC(=O)O)NC(=O)[C@H](CCCCNC(=O)CC[C@H](NC(=O)CCCCCCCCCCCCCCCCC(=O)O)C(=O)O)NC(=O)[C@H](CC(=O)O)NC(=O)[C@H](CC(C)C)NC(=O)[C@@H](NC(=O)[C@@H](NC(=O)[C@H](C)NC(=O)[C@H](CC(C)C)NC(=O)[C@H](CCC(=O)O)NC(=O)[C@H](CO)NC(=O)[C@@H](NC(=O)[C@H](Cc1ccccc1)NC(=O)[C@@H](NC(=O)CNC(=O)[C@H](CCC(=O)O)NC(=O)C(C)(C)NC(=O)[C@@H](N)Cc1c[nH]cn1)[C@@H](C)O)[C@@H](C)O)[C@@H](C)O)[C@@H](C)CC)C(=O)N[C@@H](C)C(=O)N[C@@H](Cc1c[nH]c2ccccc12)C(=O)N[C@@H](CC(C)C)C(=O)N[C@H](C(=O)N[C@@H](CCC(=O)O)C(=O)N[C@@H](Cc1c[nH]cn1)C(=O)N[C@@H](CCCCN)C(=O)N[C@H](C(=O)N[C@H](C(=O)N[C@@H](CC(=O)O)C(=O)O)[C@@H](C)O)[C@@H](C)CC)[C@@H](C)CC) [Compound 3] | 0.042 | 0.33
9 | H-H[Aib]EGSFTSELATILDK([AEEA-KEK-γGlu-C20 diacid])KAARDFIAWLIEHKITD-OH [Compound 59] | 0.088 | 0.11
10 | H-H[Aib]EGSFTSELATILDK([AEEA-AEEA-KEK-γGlu-C20 diacid])QAARDFIAWLIEHKITD-OH [Compound 60] | 0.097 | 0.074
11 | H-H[Aib]EGTFTSELATILDK([AEEA-KEK-γGlu-C20 diacid])QAARDFIAWLIQHKITD-OH [Compound 52] | 0.02 | 0.075
12 | H-H[Aib]EGSFTSEK([AEEA-AEEA-KEK-γGlu-C20 diacid])ATILDEQAARDFIAWLIEHKITD-OH [Compound 55] | 0.11 | 0.78
13 | H-H[Aib]EGTFSSELATILDK([AEEA-KEK-γGlu-C18 diacid])QAARDFIAWLIQHKITD-OH [Compound 47] | 0.44 | 0.048
14 | H-H[Aib]EGTFSSELATILDK([AEEA-KEK-γGlu-C18 diacid])QAARDFIAWLIEHKITD-OH [Compound 49] | 0.27 | 0.044
15 | H-H[Aib]EGSFTSEK([AEEA-KEK-γGlu-C20 diacid])ATILDEQAARDFIAWLIEHKITD-OH [Compound 53] | 0.076 | 0.24
16 | H-H[Aib]EGTFTSELATILDK([KEK-γGlu-C20 diacid])QAARDFIAWLIQHKITD-OH [Compound 51] | 0.02 | 0.18
17 | H-H[Aib]EGTFTSEK([AEEA-KEK-γGlu-C20 diacid])ATILDEQAARDFIAWLIEHKITD-OH [Compound 54] | 0.034 | 0.99
18 | H-H[Aib]EGTFTSELATILDEQAAK([AEEA-KEK-γGlu-C20 diacid])DFIAWLIEHKITD-OH [Compound 65] | 0.13 | 0.35
19 | H-H[Aib]EGSFTSELATILDK([AEEA-KEK-γGlu-C20 diacid])QAARDFIAWLIEHKITD-OH [Compound 57] | 0.093 | 0.083
20 | H-H[Aib]EGSFTSELATILEGK([AEEA-KEK-γGlu-C20 diacid])AARDFIAWLIEHKITD-OH [Compound 61] | 0.13 | 0.2
21 | H-H[Aib]EGTFTSELATILDK([AEEA-KEK-γGlu-C20 diacid])QAARDFIAWLIEHKITD-OH [Compound 56] | 0.033 | 0.076
22 | H-H[Aib]EGTFSSELATILDK([AEEA-KEK-γGlu-C20 diacid])QAARDFIAWLIQHKITD-OH [Compound 48] | 0.47 | 0.054
